Data on 2 molecules can be found in patent US20240309051A1, “[…] T (TFH) CELLS […] TO SARS-COV-2 VIRUS” (priority 2021, published 2024).

The test system of test [1] is T-cell hybridomas expressing TCRs of clonotype 1/2 (clone 1 and clone 2). In kind it is cell-based, human.
The test system of test [2] is CD4 positive cells and patient-derived B cells immortalized by EBV infection. The test is described as follows: Restimulation assay of PBMC by S864-882 peptide, human IL-21 ELISA. In kind it is cell-based. The note with it: peptide 1 μg/ml; 24 hr; compared with not stimulated.
In test [3] the target is T1, SARS-COV-2 spike (S) protein peptide on HLA-DRA*01:01 / HLA-DRB1*15:01 (human).
T1 peptide: DEMIAQYTSALLAGT
The test can be described thus: activation reporter or marker.

Test [4] deals with T2, SARS-COV-2 spike (S) protein peptide on HLA-DRA*01:01 / HLA-DRB1*15:01 (human).
T2 peptide: PLLTDEMIAQYTSAL
The test can be described thus: activation reporter or marker.

For test [5], the target named is T3, SARS-COV-2 spike (S) protein peptide on HLA-DRA*01:01 / HLA-DRB1*15:01 (human).
T3 peptide: LPPLLTDEMIAQYTS
The test is described as follows: activation reporter or marker.

For test [6], the target named is T4, SARS-COV-2 spike (S) protein peptide on HLA-DRA*01:01 / HLA-DRB1*15:01 (human).
T4 peptide: AQYTSALLAGTITSG
The test is described as follows: activation reporter or marker.

The target in test [7] is T5, SARS-COV-2 spike (S) protein peptide on HLA-DRA*01:01 / HLA-DRB1*15:01 (human).
T5 peptide: PPLLTDEMIAQYTSA
The test can be described thus: activation reporter or marker.

The target in test [8] is T6, SARS-COV-2 S protein, S867-881 peptide with residue 5 (T) of SEQ ID NO: 13 replaced with alanine peptide on … (human).
T6 peptide: DEMIAQYASALLAGT
The test is described as follows: activation reporter or marker.

For test [9], the target named is T7, SARS-COV-2 spike (S) protein peptide on HLA-DRA*01:01 / HLA-DRB1*15:01 (human).
T7 peptide: YTSALLAGTITSGWT
The test can be described thus: activation reporter or marker.

The target of test [10] is T8, SARS-COV-2 spike (S) protein peptide on HLA-DRA*01:01 / HLA-DRB1*15:02 (human).
T8 peptide: LLTDEMIAQYTSALLAGTI
The test can be described thus: activation reporter or marker.

Test [11] has as its target T9, SARS-COV-2 spike (S) protein peptide on HLA-DRA*01:01 / HLA-DRB1*15:01 (human).
T9 peptide: LLTDEMIAQYTSALLAGTI
The test can be described thus: activation reporter or marker.

Regarding “S864-882: peptide of positions 864-882 of the SARS-CoV-2 S protein, epitope of clones 1 and 2”, the “stimulation of clones 1 and 2, CD69 expression” value in test [1] (APC from an individual who has DRB1*15:02 but not DRB1*15:01) was “able to stimulate both clones 1 and 2”. Besides, the “epitope determination by stimulating clones 1 and 2 with single synthesized peptide, CD69” value in test [1] (single peptide 1 μg/ml, 20 hr, in the presence of APC) is “determined as an epitope for both clones 1 and 2”. In [2], the “concentration of IL-21 in the medium” value was “higher”.

B1: Clone 1 (TCR-017) (TCR)
alpha TRAV12-1 TRAJ12 CDR3: CVVNRGSSYKLIF
beta TRBV11-2 TRBJ2-7 CDR3: CASSQTYEQYF
Turning to B1, the binding result in [3] was “recognises”; in [4] it was “no recognition”; in [5], “no recognition”; in test [6], “no recognition”; in test [7], “no recognition”; in test [8], “no recognition”. For the same molecule, the binding result in test [9] is “no recognition”; in test [10], “recognises”; in [11] it was “recognises”.
